This experiment has as its system carrageenan-induced Paw edema. Nature of the experiment: carrageenan-induced paw edema (CPE) model in mice. Conditions: 3 mpk. The experiment is classed as in vivo, CD-1 mice. An excerpt:
This test is a rapid in vivo model for evaluation of anti-inflammatory efficacy of test articles. The CPE model in mice quantitativdy assesses inhibition of edema enduced by subplantarinjection of carrageenan. […] Carrageenan-induced inflammation invoves extravasation of polymorphonuclear leukocytes from circulation to the site of inflammation. The subsequent release of myeloperoxidase and other cytokines within the interstitial tissues results in plasma exudation into the site of inflammation. The increased paw volume is measured by water displacement. Anti-inflammatory drugs reduce the paw edema.
• 1. Receive (SOP 1910, SOP 1920) and quarantine (SOP 560) 125 CD-1 mice (Charles River Laboratories, male, 5-6 weeks old). • 2. Animals are ear tagged (SOP 810), weighed, and sorted into 9 groups with 10 animals/group and 5 groups of 7 animals/group based upon average body weight. • 3. Prepare 3% carrageenan solution: • 1) Preparation at least 2 weeks in advance of use. • 2) Weigh out 600 mg A-carrageenan into a glass beaker. • 3) Add 20 ml deionized water. • 4) Stir on mild heat until carrageenan fully dissolved. • 5) Cool solution to ambient temperature. • 6) Store at 4-8° C. • 4. Until the day of use the renalase peptides are stored at -20° C. as dry powder. • 5. DAY 0 • a. Prepare test material in sterile saline (vehicle). • b. On the day of dosing, renalase peptides are dissolved. • c. On day prior to administration check carrageenan solution for clarity (no visible evidence of contamination). • 1) Equilibrate carrageenan to ambient temperature. • d. Record mouse weights in laboratory notebook. • e. Measure and record paw initial paw volumes: • 1) Place beaker of water on balance and tare to zero. • 2) Place right hind limb in the beaker of water on the scale with the top of the hock centered in the meniscus of the water. Record read-out on the scale. • 3) The foot must be dried after each measurement as wet feet will change the readout. • 4) Re-tare the scale between measurements to account for decrease in water volume. • f. […]
The test was also conducted to compare the inhibition of inflammation by peptide 10 as compared to the corresponding peptide fragment without the alanine substitution at position 220 (peptide 81).
A general note: In the carrageenan paw model, swelling and tenderness develop within hours.

Marks after values point to notes of the source that are not given here.

B1: Renalase: RNLS is a 37 kD secretory protein that is primarily made by kidney proximal renal tubules cells (protein, UniProt Q5VYX0 18-342, looked up)
Renalase: ALLRRQTSGPLYLAVWDKAEDSGGRMTTACSPHNPQCTADLGAQYITCTPHYAKKHQRFYDELLAYGVLRPLSSPIEGMVMKEGDCNFVAPQGISSIIKHYLKESGAEVYFRHRVTQINLRDDKWEVSKQTGSPEQFDLIVLTMPVPEILQLQGDITTLISECQRQQLEAVSYSSRYALGLFYEAGTKIDVPWAGQYITSNPCIRFVSIDNKKRNIESSEIGPSLVIHTTVPFGVTYLEHSIEDVQELVFQQLENILPGLPQPIATKCQKWRHSQVTNAAANCPGQMTLHHKPFLACGGDGFTQSNFDGCITSALCVLEALKNYI
Consider B1, for which, under “2 hr after carrageenan”, the “percent change from control, paw edema, 2 hr after carrageenan” value was 60.1* percent. For the same molecule, the “percent change from control, paw edema, 4 hr after carrageenan” value (4 hr after carrageenan) was 35.3* percent. The “percent change from control, paw edema, 6 hr after carrageenan” value (6 hr after carrageenan) amounted to 4.5%. Moreover, under “10 hr after carrageenan”, the “percent change from control, paw edema, 10 hr after carrageenan” value came to 23.7%.
